T1: Fabrazyme (agalsidase beta, Genzyme) (UniProt P06280 32-429)
T1 construct: Negative control in the dot blots
T1 sequence (looked up): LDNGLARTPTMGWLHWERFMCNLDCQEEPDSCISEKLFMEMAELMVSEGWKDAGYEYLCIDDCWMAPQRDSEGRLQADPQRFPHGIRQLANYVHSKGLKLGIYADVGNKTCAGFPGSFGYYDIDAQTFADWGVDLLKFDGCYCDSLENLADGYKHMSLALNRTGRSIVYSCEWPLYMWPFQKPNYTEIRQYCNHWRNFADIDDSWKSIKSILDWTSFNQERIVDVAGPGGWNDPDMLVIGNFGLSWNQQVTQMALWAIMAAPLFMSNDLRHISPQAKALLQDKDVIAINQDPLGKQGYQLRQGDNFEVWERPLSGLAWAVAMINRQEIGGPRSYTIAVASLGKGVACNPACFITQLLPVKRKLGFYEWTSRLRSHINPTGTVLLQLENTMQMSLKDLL

T2: human beta-DG extracellular domain (human, UniProt Q14118 654-749, biotinylated in the Example 6 ELISA)
T2 construct: extracellular domain; Expression of the soluble human protein is not described; also called hBeta-DG; hbeta-DG
T2 sequence (looked up): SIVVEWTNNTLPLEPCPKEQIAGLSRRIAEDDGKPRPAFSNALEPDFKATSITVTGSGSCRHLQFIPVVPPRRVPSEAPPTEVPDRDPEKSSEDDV

T3: murine beta-DG extracellular domain (mbeta-DG ECD) (mouse, UniProt Q62165 652-746)
T3 construct: range 652-746; Made in E. coli; also called mbeta-DG-HPC4; m βDG; not shown: C-terminal HPC4 tag
T3 sequence (looked up): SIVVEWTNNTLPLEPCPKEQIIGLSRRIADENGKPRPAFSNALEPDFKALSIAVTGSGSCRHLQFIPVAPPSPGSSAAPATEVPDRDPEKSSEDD

T4: murine laminin G-like 5 domain (mLG-5) (mouse, UniProt Q60675 2932-3118, biotinylated (Avi tag) ; Biotinylated at the Avi tag (soluble biotinylated protein); the tag is left out of the letters.)
T4 construct: Soluble protein from Expi293F cells; also called murine LG-5
T4 sequence: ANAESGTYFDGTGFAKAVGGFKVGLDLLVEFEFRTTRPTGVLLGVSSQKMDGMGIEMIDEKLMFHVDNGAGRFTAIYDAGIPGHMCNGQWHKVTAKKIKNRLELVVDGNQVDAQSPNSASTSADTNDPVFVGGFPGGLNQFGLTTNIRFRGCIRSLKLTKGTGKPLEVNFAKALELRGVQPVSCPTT


Legend:
[1] = target: T1, Fabrazyme (agalsidase beta, Genzyme); assay: dot blot
[2] = target: T2, human beta-DG extracellular domain; assay: SPR (Biacore), mAb immobilized, hBeta-DG in flow
[3] = target: T3, murine beta-DG extracellular domain …; assay: SPR (Biacore), mAb immobilized, mBeta-DG in flow
[4] = target: T4, murine laminin G-like 5 domain (mLG-5); assay: SPR (Biacore), mAb immobilized, mLG-5 in flow

| Binder | binding result [1] | Kd [2] | koff [2] | kon [2] | Kd [3] | koff [3] | kon [3] | Kd [4] |
| --- | --- | --- | --- | --- | --- | --- | --- | --- |
| anti-beta-DG antibody derived from hybridoma clone AS30 (antibody, V domains shown, detected with anti-mouse IgG) VH: QIQLQQSGPELVKPGASVKMSCEASGFTFTDSVITWVKQRPGQGLEWIGEIYPGSGNFYYNEKFKGKATLTADKSSNTAYMQLRSLTSEDSAVYFCAMRRSSWGQGTLVTVSA VL: DVLMTQTPLSLPVSLGDQASISCRSSQTIVHSNSKTYLEWYLQKPGQSPKLLIYKVSNRFSGVPDRFSGSGSGTDFTLKISRVEAEDLGVYYCFQGSHVPLTFGAGTKLELK | no binding | 1.08 nM | 0.000963 s⁻¹ | 890000 M⁻¹ s⁻¹ | 1.48 nM | 0.00113 s⁻¹ | 773000 M⁻¹ s⁻¹ | – |
| anti-beta-DG antibody derived from hybridoma clone AS19 (antibody, V domains shown, Hybridoma-derived monoclonal antibody detected with anti-mouse IgG; also called parental anti-beta-DG (clone AS19)) VH: QVQLQQSGPELVKPGASVKMSCKASGFTFTDSVISWVKQRTGQGLEWIGEIYPGSGSIYYNEKFKGKATLTADKSSNTAYMQLRSLTSEDSAVYFCAMRRSYWGQGTLVTVSA VL: DVLMTQTPLSLPVSLGDQASISCRSSQSIVHSNGNTYLEWYLQKPGQSPKLLIYKVSNRFSGVPDRFSGSGSGTDFTLKISRVEAEDLGVYYCFQGSHVPLTFGAGTKLELK | no binding | – | – | – | – | – | – | – |
| anti-laminin-2 antibody derived from hybridoma clone C3 (antibody, V domains shown, Hybridoma-derived monoclonal antibody detected with anti-mouse IgG; Chimeric human IgG1/kappa versions were also made; also called C03; anti-laminin-2(C3)) VH: DVMLVESGGDLVKPGGSLKLSCAASGFTFSSYTMSWVRQTPEKRLEWVASISSGGGNTYYPDSVKGRFTISRDNAKNNLYLQMSSLRSEDTALYYCARFDYGSSLDSWGQGTTLTVSS VL: DIVLTQSPATLSVTPGDSVSLSCRASQSISNNLHWYQQKSHESPRLLIKYASQSISGIPSRFSGSGSGTDFTLSINSVETEDFGMYFCQQSKNWPRTFGGGTKLEIK | – | – | – | – | – | – | – | 8.27 nM |
